Assay [1] has as its target T1, Cyno Cadherin-19 (cynomologous monkey (Macaca …, UniProt Q9H159 44-772 (human entry))).
T1 construct: also called cynomologous monkey CDH-19
T1 chain: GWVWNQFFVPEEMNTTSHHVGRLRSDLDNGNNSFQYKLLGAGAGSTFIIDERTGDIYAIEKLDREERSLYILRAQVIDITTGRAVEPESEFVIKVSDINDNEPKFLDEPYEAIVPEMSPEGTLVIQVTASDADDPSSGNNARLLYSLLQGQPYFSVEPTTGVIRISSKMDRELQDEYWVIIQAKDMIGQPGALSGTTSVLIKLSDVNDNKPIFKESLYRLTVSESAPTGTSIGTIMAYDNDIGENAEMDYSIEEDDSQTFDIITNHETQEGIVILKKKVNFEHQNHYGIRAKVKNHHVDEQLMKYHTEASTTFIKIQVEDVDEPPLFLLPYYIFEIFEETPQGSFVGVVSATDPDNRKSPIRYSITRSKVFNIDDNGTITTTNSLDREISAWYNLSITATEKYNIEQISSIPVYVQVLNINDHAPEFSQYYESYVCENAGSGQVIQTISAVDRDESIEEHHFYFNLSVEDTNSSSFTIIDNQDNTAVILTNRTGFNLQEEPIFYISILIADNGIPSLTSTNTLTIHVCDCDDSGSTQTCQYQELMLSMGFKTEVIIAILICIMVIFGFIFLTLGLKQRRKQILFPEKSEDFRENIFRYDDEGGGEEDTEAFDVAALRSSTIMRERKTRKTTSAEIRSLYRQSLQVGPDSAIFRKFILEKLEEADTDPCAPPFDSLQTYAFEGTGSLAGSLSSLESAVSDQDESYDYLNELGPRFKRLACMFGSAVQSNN
The experiment in a line: FACS, recombinant cynomologous CDH-19.

Assay [2] has as its target T2, Human Cadherin-19 (human, UniProt Q9H159 44-772).
T2 construct: also called CDH19; huCDH19
The experiment in a line: FACS, endogenous CDH-19 on CHL-1 and Colo699 tumor cells. In general terms: Flow cytometry measures light scatter and fluorescence of single cells or particles in a stream.
Method: FACS binding assays were performed to evaluate the binding of the anti-Cadherin-19 receptor specific antibodies to endogenous Cadherin-19 receptor expressed on the CHL-1 tumor cell lines.
FACs assays were performed by incubating hybridoma supernatants with 10,000 to 25,000 cells in PBS/2% Fetal bovine serum/2 mM Calcium Chloride at 4° C. for one hour followed by two washes with PBS/2% Fetal bovine serum/2 mM Calcium Chloride. Cells were then treated with florochrome-labeled secondary antibodies at 4° C. followed by one wash. The cells were resuspended in 50 μl of PBS/2% FBS and antibody binding was analyzed using a FACSCalibur™ instrument.

The target in assay [3] is T3, huCDH19(44-141)::muCDH19(140-770) with Flag tag (construct B, Hu EC1) (human/mouse chimera).
T3 construct: leader left out; the entry starts at residue 44; also called C137897
The experiment in a line: flow cytometry, transfected 293T cells.
From the text: (§1) The experiment included assaying the anti-CDH19 antibodies against mouse Cadherin19 to determine suitability for binning on these human/mouse chimeras.

The target in assay [4] is huCDH19(44-772) with Flag tag (construct A, Hu EC1-5) (human, UniProt Q9H159 44-772). The assay is described as follows: flow cytometry, transfected 293T cells.
From the text: as §1
Assay [5] addresses T4, huCDH19(44-249)::muCDH19(248-770) with Flag tag (construct C, Hu EC1-2) (human/mouse chimera).
T4 construct: leader left out; the entry starts at residue 44; also called C137896
The experiment in a line: flow cytometry, transfected 293T cells.
From the text: as §1

Numbering of substitutions follows the chain as printed. Numbers in names are those of the source.

B1: hu anti-<huCDH19> 22G10.1 (Ab ID 13877) (antibody, human IgG1, kappa, V domains shown)
VH: EVQLLESGGGLVQPGGSLRLSCAASGFTFSSYAMNWVRQAPGKGLEWVSTISGGGANTYYADSVKGRFTISSDNSKSTLYLQMNSLRAADTAVYHCAKGGMGGYYYGMDVWGQGTTVTVSS
VL: EIVMTQSPVTLSLSLGERATLSCRASQSISSNLAWFQQKPGQAPRLLIYGAFTRATGIPARVSGSGSGTEFTLTISSLQSEDFAVYYCQQYNYWPLTFGGGTKVEIKR
notes: huIgG1z / huKLC; Bin 3
As for B1, the binding result in assay [1] and in assay [2] was “binds” in each case.

B2: anti-CDH19 antibody 23A10 (Ab ID 13884) (antibody, human IgG1, lambda, V domains shown)
VH: QVQLVESGGGVVQPGRSLRLSCAASGFTFSRYGIHWVRQAPGKGLEWVAVIWYDGSNKYYADSVKGRFTISRDNSKNTLYLLMNSLRAEDSAVYYCARRAGIPGTTGYYYGMDVWGQGTTVTVSS
VL: SYELTQPPSVSVSPGQTASITCSGDRLGEKYVCWYQQKPGQSPILVIYQDNKWPSGIPERFSGSNSGNTATLTISGTQAMDEADYYCQAWDSSTVVFGGGTKLTVLG
notes: Bin 4
In the case of B2, the binding result in assay [1] and in assay [2] was “binds” throughout.

B3: hu anti-<huCDH19> 4A9 VH::huIgG1z + 4A9 (1-239)(F47L) VL::huLLC-C1 (Ab ID 14056) (antibody, V domains shown)
VH: QVQLQESGPGLVKPSETLSLTCTVSGGSISGYYWSWIRQPPGKGLEWFAYFSYSGSTNYNPSLKSRVTLSVDTSKNQFSLKLSSVTAADTAVYYCARNWAFHFDFWGQGTLVTVSS
VL: QSVLTQPPSVSGAPGQRVTISCTGSSSNIGTGYAVHWYQQLPGTAPKLLIYGNNNRPSGVPDRFSGSKSGTSASLAITGLQAEDEADYYCQSYDSRLSGWVFGGGTKLTVLG
notes: Engineered variant of 4A9; the entries already carry the changes; Bin 1
In the case of B3, the binding result in assay [3], in assay [4] and in assay [5] was “binds” each time.

B4: hu anti-<huCDH19> 4F7 (Ab ID 13591) (antibody, human IgG1, lambda, V domains shown)
VH: B3 VH with G31S, Y33S, F48I, A49G, F51I, S52Y, L69I, V71L, F105Y
VL: B3 VL with A34D, Y51H, N54S, R96S, K107R
notes: huIgG1z / huLLC-C1; Bin 1
With B4, the binding result in assay [1] and in assay [2] was “binds” each time.

B5: hu anti-<huCDH19> 4A9 (1-468)(F55I,A56G) VH::huIgG1z + 4A9 (1-239)(F47L) VL::huLLC-C1 (Ab ID 14057) (antibody, V domains shown)
VH: B3 VH with F48I, A49G
VL: B3 VL
notes: as for B3
As to B5, the binding result in assay [3], in assay [4] and in assay [5] was “binds” in each case.

B6: hu anti-<huCDH19> 20D3.1 (Ab ID 13878) (antibody, human IgG1, lambda, V domains shown)
VH: QVQLVQSGAEVKKPGASVKVSCKVSGYTFTSYFIHWVRQAPGQGLEWMGIINPISVSTSYAQKFQGRVTMTRDTSTSTVFMELSSLRSEDTAVYYCARGGIQLWLHFDYWGQGTLVTVSS
VL: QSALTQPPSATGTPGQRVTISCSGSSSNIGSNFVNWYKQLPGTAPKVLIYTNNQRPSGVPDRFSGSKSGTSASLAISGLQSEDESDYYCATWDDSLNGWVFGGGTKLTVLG
notes: huIgG1z / huLLC-C2; Bin 2; also called 16H2; 23E7
With B6, the binding result in assay [1] and in assay [2] was “binds” in each case.

B7: hu anti-<huCDH19> 22D1.1 (Ab ID 13879) (antibody, human IgG1, lambda, V domains shown)
VH: B6 VH with K19R, F107L
VL: QSALTQPPSATGTPGQRVTISCSGSSSNIGSNFVNWYKQLPGTAPKVLIYTNNQRPSGVPDRFSGSKSGTSASLAISGLQSEDESDYYCATWDDSMNGWVFGGGTKLTVLG
notes: huIgG1z / huLLC-C2; Bin 2
Regarding B7, the binding result in assay [1] and in assay [2] was “binds” each time.

B8: hu anti-<huCDH19> 19B5.1 (Ab ID 13885) (antibody, human IgG1, lambda, V domains shown)
VH: B6 VH with F107L
VL: B7 VL with A10T, S26R
notes: huIgG1z / huLLC-C2; Bin 2
B8: the binding result in assay [1] and in assay [2] was “binds” throughout.

B9: hu anti-<huCDH19> 25G10.1 (Ab ID 13883) (antibody, human IgG1, kappa, V domains shown)
VH: QVQLQESGPGLVKPSETLSLTCTVSGGSISGYYWSWIRQPPGKGLEWIGYIYYIGSTNYNPSLKSRVTMSVDTSKNQFSLKLSSVTAADTAVYYCARDGSSGWYRWFDPWGQGTLVTVSS
VL: EIVLTQSPGTLSLSPGERATLSCRASQSVSSSYLAWYQQKPGQAPRLLIFGASSRATGIPDRFSGSGSGTDFTLTISRLEPEDFAVYHCQQYGNSPLTFGGGTKVEIKR
notes: huIgG1z / huKLC; Bin 3
With B9, in assay [2], the binding result is listed as “binds”.

B10: hu anti-<huCDH19> 16C1.1 (Ab ID 13875) (antibody, human IgG1, kappa, V domains shown)
VH: B9 VH with V71I, K81T, V85L, Y94F
VL: B9 VL with R78G
notes: huIgG1z / huKLC; Bin 3
B10: the binding result in assay [2] was “binds”.

B11: hu anti-<huCDH19> 4B10 (1-471)(R17G,D61E,D72E) VH::huIgG1z + 4B10 (1-236)(H45Q,A90T) VL::huKLC (Ab ID 14055) (antibody, V domains shown)
VH: QVQLVESGGGVVQPGGSLRLSCAASGFTFSSYDMHWVRQAPGKGLEWVAVISYEGTNEYYAESVKGRFTISRDTSKNTLYLQMNSLRAEDTAVYYCARERYFDWSFDYWGQGTLVSVSS
VL: EIVLTQSPGTLSLSPGERATLSCRASQSVSNTYLAWYQQRPGQAPRLLIYGASSRATGIPDRFSGSGSGTDFTLTISSLEPEDFAVYYCQQYSNSWTFGQGTKVEIKR
notes: Engineered variant of 4B10; the entries already carry the changes; Bin 4
For the molecule B11, the binding result in assay [4] is “binds”.

B12: hu anti-<huCDH19> 26D1.1 (1-469)(R27G,G82R) VH::huIgG1z + 26D1.1 (1-235)(H1Q,S7P) VL::huLLC-C2 (Ab ID 14088) (antibody, V domains shown)
VH: QVQLVQSGAEVKKPGASVKVSCKASGYTFTSYYMSWVRQAPGQGLEWMGIIHPSGGDTTYAQKFQGRVTMTRDTSTSTVYMELSSLRSEDTAVYYCARGGIKLWLHFDYWGQGTLVTVSS
VL: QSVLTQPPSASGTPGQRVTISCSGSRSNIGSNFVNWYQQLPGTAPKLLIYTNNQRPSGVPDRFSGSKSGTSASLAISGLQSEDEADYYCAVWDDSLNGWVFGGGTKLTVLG
notes: Engineered variant of 26D1; the entries already carry the changes; Bin 2
In the case of B12, the binding result in assay [3], in assay [4] and in assay [5] was “binds” each time.

B13: hu anti-<huCDH19> 25F8.1 VH::huIgG1z + 25F8.1 (1-235)(K45Q,S102A) VL::huLLC-C2 (Ab ID 14094) (antibody, V domains shown)
VH: B6 VH with V24A, F33Y, I54S, S55G, V56G, S59R
VL: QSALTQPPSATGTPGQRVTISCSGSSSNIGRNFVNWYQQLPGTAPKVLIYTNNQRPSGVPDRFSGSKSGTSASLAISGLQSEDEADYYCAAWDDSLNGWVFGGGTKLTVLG
notes: Engineered variant of 25F8; the entries already carry the changes; Bin 2
For the molecule B13, the binding result in assay [3], in assay [4] and in assay [5] was “binds” each time.

B14: hu anti-<huCDH19> 25F8.1 (Ab ID 13880) (antibody, human IgG1, lambda, V domains shown)
VH: B6 VH with V24A, F33Y, I54S, S55G, V56G, S59R
VL: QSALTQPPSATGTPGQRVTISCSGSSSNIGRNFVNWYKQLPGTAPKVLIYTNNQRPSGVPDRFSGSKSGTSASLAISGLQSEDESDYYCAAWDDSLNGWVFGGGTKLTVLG
notes: huIgG1z / huLLC-C2; Bin 2
Take B14: the binding result in assay [1], in assay [2], in assay [3], in assay [4] and in assay [5] was “binds” in each case.

For the origin of these results see US20220127354A1 (Amgen, published 2022).
